Here are results for 167 variants from the RNAGym collection of RNA variant scans (doi:10.1021/acssynbio.7b00057).

To fix the notation:
B1: Pistol ribozyme (parent)
chain: GGGUCGUUGUUCCAUAAUCGCGUGGAUAUGGCACGCAAGUUUCUACCGGGCACCGUAAAUGUCCGACUGGAGCCGUUCGGGCGGCUAUAAACAGACCUCAGGCCCGAAGCGUGGCGGCACCUGCCGCCGGUGGUAAAAAAGAUCGGAAGAGCACACGUCU

In this series the parent is B1. Kind of series: aptazyme ON/OFF ratio, guanine; higher = stronger switching; co-transcriptional cleavage with and without guanine.
As to U7A G9U U10A U11G C13A, the “aptazyme ON/OFF ratio” value was found to be 1.11.
Then U7A G9U U10A U11G C13G, with 1.07; and U7A G9U U10A U11G C13U, with 1.21; and U7A G9U U10A U11A C12A C13A, with 1.1.
Then U7A G9U U10A U11A C12A C13U, with 1.3.
For U7A G9U U10A U11A C12A C13G, the “aptazyme ON/OFF ratio” value was 1.14.
The value for U7A G9U U10A U11C C12U was 1.08; that for U7A G9U U10A U11C C12A was 1.26.
The value for U7A G9U U10A U11C C12G was 1.25; that for U7A G9U U10C C12G C13A was 1.07; that for U7A G9U U10C C12G C13U was 1.4.
Turning to U7A G9U U10C C12G C13G, the “aptazyme ON/OFF ratio” value worked out at 1.29.
The value for U7A G9U U10C U11C C12G C13A was 1.02.
U7A G9U U10C U11C C12G C13U: the “aptazyme ON/OFF ratio” value worked out at 1.01.
Then U7A G9U U10C U11C C12G C13G, with 1.04; and U7A G9U U10G U11A C12A C13U, with 1.18; and U7A G9U U10G U11A C12A C13G, with 1.17.
For U7A G9U U10G U11A C12A C13A, the “aptazyme ON/OFF ratio” value was 1.14.
Then U7A G9U U10A U11C C12G C13G, with 1.06; and U7A G9U U10A U11C C12G C13U, with 1.13.
Then U7A G9U U10A U11C C12G C13A, with 1.09; and U7A G9U U10G C12U, with 1.43; and U7A G9U U10G C12G, with 1.13.
Then U7A G9U U10G C12A, with 1.15; and U7A G9U U10C C12U C13A, with 1.14.
Take U7A G9U U10C C12U C13G: the “aptazyme ON/OFF ratio” value was 1.07.
Turning to U7A G9U U10C C12U C13U, the “aptazyme ON/OFF ratio” value is 1.2.
Then U7A G9U U10A U11G C12A C13G, with 1.19; and U7A G9U U10A U11G C12A C13U, with 1.1.
As to U7A G9U U10A U11G C12A C13A, the “aptazyme ON/OFF ratio” value came out at 1.08.
The value for U7A G9U U10A C12U was 1.22.
Turning to U7A G9U U10A C12A, the “aptazyme ON/OFF ratio” value worked out at 1.47.
Then U7A G9U U10A C12G, with 1.28.
Then U7A G9U U10C U11C C13G, with 1.04; and U7A G9U U10C U11C C13A, with 1.01.
For the variant U7A G9U U10C U11C C13U, the “aptazyme ON/OFF ratio” value amounted to 1.02.
Then U7A G9U C12A C13U, with 1.28; and U7A G9U U10C U11G, with 1.32.
As to U7A G9U U10C U11C, the “aptazyme ON/OFF ratio” value was found to be 1.07.
Consider U7A G9U U10C U11A, for which the “aptazyme ON/OFF ratio” value is 1.31.
The value for U7A G9U U10C U11G C13U was 1.2.
With U7A G9U U10C U11G C13A, the “aptazyme ON/OFF ratio” value amounted to 1.13.
As to U7A G9U U10C U11G C13G, the “aptazyme ON/OFF ratio” value was determined as 1.09.
The value for U7A G9U U10G U11A was 1.08; that for U7A G9U U10C U11C C12U C13A was 1.06; that for U7A G9U U10C U11C C12U C13U was 1.07.
In the case of U7A G9U U10C U11C C12U C13G, the “aptazyme ON/OFF ratio” value was 1.02.
With U7A G9U U10A U11A C12U C13U, the “aptazyme ON/OFF ratio” value is 1.06.
Consider U7A G9U U10A U11A C12U C13G, for which the “aptazyme ON/OFF ratio” value stood at 1.15.
Turning to U7A G9U U10A U11A C12U C13A, the “aptazyme ON/OFF ratio” value amounted to 1.3.
The value for U7A G9U U10G C13A was 1.33.
Then U7A G9U U10G C13G, with 1.14; and U7A G9U U10G C13U, with 1.54; and U7A G9U U10C U11G C12U, with 1.34.
Regarding U7A G9U U10C U11G C12G, the “aptazyme ON/OFF ratio” value came out at 1.09.
Then U7A G9U U10C U11G C12A, with 1.02; and U7A G9U U10C U11C C12A C13G, with 1.06; and U7A G9U U10C U11C C12A C13U, with 1.07.
As for U7A G9U U10C U11C C12A C13A, the “aptazyme ON/OFF ratio” value came to 1.03.
The value for U7A G9U U10C U11C C12G was 1.05; that for U7A G9U U10C U11C C12A was 1.09; that for U7A G9U U10C U11C C12U was 1.03.
Then U7A G9U U10G U11A C12G C13A, with 1.41.
The value for U7A G9U U10G U11A C12G C13G was 1.21.
U7A G9U U10G U11A C12G C13U: the “aptazyme ON/OFF ratio” value came to 1.31.
The value for U7A G9U U10A U11A C12U was 1.28; that for U7A G9U U10A U11A C12A was 1.43; that for U7A G9U U10A U11A C12G was 1.26.
U7A G9U U10C U11G C12U C13G: the “aptazyme ON/OFF ratio” value amounted to 1.12.
Then U7A G9U U10C U11G C12U C13A, with 1.15; and U7A G9U U10C U11G C12U C13U, with 1.27; and U7A G9U U10C C12A C13G, with 1.14.
Then U7A G9U U10C C12A C13U, with 1.16; and U7A G9U U10C C12A C13A, with 1.21; and U7A G9U U10A U11A C13G, with 1.1.
In the case of U7A G9U U10A U11A C13A, the “aptazyme ON/OFF ratio” value came out at 1.17.
Then U7A G9U U10A U11A C13U, with 1.16; and U7A G9U U10C C13U, with 1.18; and U7A G9U U10C C13G, with 1.02.
The value for U7A G9U U10C C13A was 1.09; that for U7A G9U U10C U11A C12A C13U was 1.21.
Then U7A G9U U10C U11A C12A C13A, with 1.2.
As for U7A G9U U10C U11A C12A C13G, the “aptazyme ON/OFF ratio” value was found to be 1.15.
Then U7A G9U U10C U11G C12G C13A, with 1.14; and U7A G9U U10C U11G C12G C13G, with 1.16.
Then U7A G9U U10C U11G C12G C13U, with 1.11.
Then U7A G9U U10C U11A C12A, with 1.15.
U7A G9U U10C U11A C12U: the “aptazyme ON/OFF ratio” value is 1.23.
On to U7A G9U U10C U11A C12G, for which the “aptazyme ON/OFF ratio” value worked out at 1.23.
Then U7A G9U U10C U11G C12A C13A, with 1.05; and U7A G9U U10C U11G C12A C13U, with 1.11; and U7A G9U U10C U11G C12A C13G, with 1.2.
Then U7A G9U U10A C12U C13G, with 1.13; and U7A G9U U10A C12U C13U, with 1.17.
The value for U7A G9U U10A C12U C13A was 1.29; that for U7A G9U U10A U11G C12G C13U was 1.18.
Consider U7A G9U U10A U11G C12G C13A, for which the “aptazyme ON/OFF ratio” value was determined as 1.16.
Take U7A G9U U10A U11G C12G C13G: the “aptazyme ON/OFF ratio” value came to 1.2.
For the variant U7A G9U U10G C12G C13A, the “aptazyme ON/OFF ratio” value was found to be 1.18.
Then U7A G9U U10G C12G C13G, with 1.25; and U7A G9U U10G C12G C13U, with 1.25.
Then U7A G9U U10A U11C C12U C13G, with 1.12; and U7A G9U U10A U11C C12U C13A, with 1.23.
With U7A G9U U10A U11C C12U C13U, the “aptazyme ON/OFF ratio” value turned out to be 1.18.
Then U7A G9U U10G U11A C12U C13A, with 1.16; and U7A G9U U10A U11C C13G, with 1.07; and U7A G9U U10A U11C C13U, with 1.02.
The value for U7A G9U U10A U11C C13A was 1.09.
Turning to U7A G9U U10A C12G C13A, the “aptazyme ON/OFF ratio” value stood at 1.25.
As for U7A G9U U10A C12G C13U, the “aptazyme ON/OFF ratio” value came to 1.11.
The value for U7A G9U U10A C12G C13G was 1.26; that for U7A G9U U10G C12U C13U was 1.87.
The value for U7A G9U U10G C12U C13G was 1.23; that for U7A G9U U10G C12U C13A was 1.32; that for U7A G9U U10A C12A C13A was 1.1.
The value for U7A G9U U10A C12A C13U was 1.19.
For the variant U7A G9U U10A C12A C13G, the “aptazyme ON/OFF ratio” value came to 1.07.
Then U7A G9U U10A U11C, with 1.02; and U7A G9U U10A U11A, with 1.43; and U7A G9U U10A U11G, with 1.31.
Then U7A G9U C12U C13A, with 1.19; and U7A G9U C12U C13U, with 1.21; and U7A G9U C12U C13G, with 1.16.
Then U7A G9U U10A U11C C12A C13U, with 1.17; and U7A G9U U10A U11C C12A C13G, with 1.24; and U7A G9U U10A U11C C12A C13A, with 1.22.
Turning to U7A G9U U10C U11A C12U C13A, the “aptazyme ON/OFF ratio” value is 1.23.
The value for U7A G9U U10C U11A C12U C13U was 1.22.
Then U7A G9U U10C U11A C12U C13G, with 1.2; and U7A G9U U10A U11G C12U C13A, with 1.16.
As for U7A G9U U10A U11G C12U C13U, the “aptazyme ON/OFF ratio” value came out at 1.22.
The value for U7A G9U U10A U11G C12U C13G was 1.13; that for U7A G9U U10G U11A C12A was 1.2.
Then U7A G9U U10G U11A C12G, with 1.33; and U7A G9U U10G U11A C12U, with 1.06; and U7A G9U U10G, with 1.75.
The value for U7A G9U U10C was 2.35; that for U7A G9U U10A was 1.4.
Turning to U7A G9U U10A C13G, the “aptazyme ON/OFF ratio” value turned out to be 1.05.
Then U7A G9U U10A C13A, with 1.08; and U7A G9U U10A C13U, with 1.35.
The value for U7A G9U U10G C12A C13U was 1.3; that for U7A G9U U10G C12A C13G was 1.13; that for U7A G9U U10G C12A C13A was 1.16.
Then U7A G9U U10A U11G C12G, with 1.18; and U7A G9U U10A U11G C12A, with 1.07.
Take U7A G9U U10A U11G C12U: the “aptazyme ON/OFF ratio” value amounted to 1.39.
The value for U7A G9U U10A U11A C12G C13A was 1.11; that for U7A G9U U10A U11A C12G C13U was 1.19; that for U7A G9U U10A U11A C12G C13G was 1.25.
The value for U7A G9U U10C U11A C13U was 1.1; that for U7A G9U U10C U11A C13G was 1.1; that for U7A G9U U10C U11A C13A was 1.14.
The value for U7A G9U C13G was 1.05.
Take U7A G9U C13A: the “aptazyme ON/OFF ratio” value was 1.29.
Then U7A G9U C13U, with 1.35.
Then U7A G9U C12G C13U, with 1.3.
Then U7A G9U C12G C13G, with 1.3.
Take U7A G9U C12G C13A: the “aptazyme ON/OFF ratio” value was determined as 1.2.
On to U7A G9U C12U, for which the “aptazyme ON/OFF ratio” value came out at 1.34.
Then U7A G9U C12G, with 1.39.
Then U7A G9U U10C U11A C12G C13A, with 1.13; and U7A G9U U10C U11A C12G C13G, with 1.14; and U7A G9U U10C U11A C12G C13U, with 1.12.
The value for U7A G9U U10C C12U was 1.22.
Regarding U7A G9U U10C C12A, the “aptazyme ON/OFF ratio” value turned out to be 1.14.
In the case of U7A G9U U10C C12G, the “aptazyme ON/OFF ratio” value worked out at 1.29.
